Source: patent publication US20250205362A1, “LIPID NANOPARTICLES” (NATIONAL UNIVERSITY CORPORATION HOKKAIDO UNIVERSITY, priority 2022, published 2025)
Positions count from the first letter of the chain named. Marks after values point to notes of the source that are not given here.

Columns and labels:
[1] = Average particle diameter, PdI and zeta potential of lipid nanoparticles (dynamic light scattering); type: physicochemical
Method: The mean particle diameter (number average value), ζ-mean particle diameter, and polydispersity index (PdI) of the lipid nanoparticles in PBS(−) (pH 7.4), as well as the zeta potential in 10 mM HEPES buffer (pH 7.4), were measured using an analyzing device, Zetasizer Nano ZS ZEN3600 (Malvern), which utilizes dynamic light scattering.

[2] = system: BALB/c mice; experiment: Measurement of Fluc activity in tissues after iv Fluc mRNA-loaded lipid nanoparticles; type: in vivo, mouse; details: Example 2, FIG. 3; CL4F11-e-3 LNP with DSPC or DOPE; Balb/c mice
Method: First, lipid nanoparticles encapsulating Fluc mRNA (Fluc mRNA-loaded lipid nanoparticles) were intravenously injected into BALB/c mice (female, 4 weeks old) at a dose of 0.01 mg mRNA/kg body weight. Six hours after intravenous injection, the mice were euthanized, and each tissue was collected, frozen in liquid nitrogen, and stored at −80° C. The tissues were homogenized in passive lysis buffer (Promega) using a bead cell disrupter (Micro Smash MS-100R, TOMY Seiko). Tissue debris was removed by centrifugation and the supernatant was collected. Fluc activity in the supernatant was measured using a luciferase assay system (E1500, Promega) according to the manufacturer's protocol. Luminescence was measured using a luminometer (Luminescencer-PSN, ATTO). The protein concentration was determined using a commercially available measurement kit (BCA Protein Assay Kit, Pierce). Fluc activity was expressed as relative light units (RLU) per mg of protein.

[3] = Encapsulation rate of lipid nanoparticles (Ribogreen); type: physicochemical
Method: The encapsulation rate of the lipid nanoparticles was calculated by measuring the amount of encapsulated nucleic acid (the amount of ssODN in the case of RNP-ssODN) using an RNA intercalator Ribogreen (manufactured by Life Technologies).

[4] = Blood test 24 hours after administration (toxicity); type: in vivo, mouse; details: mice
Method: TTR-RNP-ssODN-loaded lipid nanoparticles were intravenously injected to BALB/c mice (female, 4 weeks old) at 2 mg RNP/kg body weight for two consecutive days. One week after the last injection, mice were anesthetized, weighed, and blood was collected. […] Hematological parameters in serum were measured by Oriental Yeast Co., Ltd.
In addition, for mice administered with Fluc mRNA-loaded lipid nanoparticles containing CL4F12-e-4, blood was collected 24 hours after administration and tested for each component. As a control, a blood test was also performed in a similar manner on mice that received PBS instead of the Fluc mRNA-loaded lipid nanoparticles. The results are shown in Table 14 (n=3, unpaired t-test). In the table, TP stands for total protein, AST for aspartate transaminase, ALB for albumin, LDH for […], BUN for blood urea nitrogen, γ-GT for γ-glutamyl transpeptidase, CRE for creatinine, T-CHO for total cholesterol, IP for inorganic phosphate, TG for triglyceride, HDL-C for high-density lipoprotein cholesterol, T-BIL for total bilirubin, and GLU for glucose, respectively. Additionally, ** indicates P<0.01, and * indicates P<0.05.

[5] = Evaluation of biodistribution (fluorescently labeled RNP-ssODN); type: in vivo, mouse; details: mice iv 2 mg RNP/kg, 1 hour; labeled TTR-RNP-ssODN in CL4H6 LNP (ssODN(−): free RNP, no LNP)
Method: For fluorescent labeling of lipid nanoparticles, the RNP-ssODN solution described above was mixed with a three-fold molar amount of a fluorescent molecule (DyLight 650 NHS ester) in DMSO and incubated for 30 min at ambient temperature in the dark. Unreacted fluorescent molecules were removed by ultrafiltration (Amicon Ultra-0.5, MWCO 3 kDa, Millipore).
Lipid nanoparticles encapsulating the obtained fluorescently labeled RNP-ssODN (fluorescently labeled RNP-ssODN-loaded lipid nanoparticles) were intravenously injected into BALB/c mice (female, 4 weeks old) at 2 mg RNP/kg body weight. One hour after intravenous injection, the mice were euthanized and various tissues, including blood, were collected. The collected blood was immediately diluted with 1% sodium dodecyl sulfate (SDS) solution. The collected tissues were immediately weighed and then homogenized in 1% sodium dodecyl sulfate (SDS) solution. The resulting homogenates were transferred to a black 96-well plate, and fluorescence was measured using a microplate reader (VarioskanLux, Thermo Fisher Scientific) at settings of λex=652 nm and λem=672 nm. Calibration curves were generated using fluorescently labeled RNP-ssODN-loaded lipid nanoparticles and blood or tissue homogenates similarly prepared from untreated mice. Biodistribution was expressed as the percentage of injected dose per tissue or blood (% injected dose).

[6] = system: dsDNA from the TTR locus; experiment: In vitro DNA cleavage activity; type: biochemical, mouse; details: n=3
Excerpt: Genomic DNA was collected and purified from BALB/c mouse liver tissue using a commercially available nucleic acid extraction kit (NucleoSpin Tissue, MACHEREY-NAGEL) according to the manufacturer's protocol.
The dsDNA from the TTR locus was amplified by PCR (using KAPA HiFi HotStart DNA polymerase (KAPA Biosystems)) using the genomic DNA as a template and the primer set shown in Table 4, and purified using a commercially available nucleic acid purification kit (ISOSPIN PCR Product, Nippon Gene).
The ssODN (5 equivalents relative to […]) was added to Cas9/sgTTR-RNP to form a TTR-RNP-ssODN complex. […] The reaction solution was then heated at 65° C. for 5 minutes to inactivate Cas9-RNP, and the dsDNA was then subjected to electrophoresis on a 3% agarose gel at 100 V for 40 minutes. After electrophoresis, the gel was stained (GelRed, Biotium) and visualized using a fluorescent/visible light gel imaging system (Printgraph CMOS I, ATTO). Bands were quantified using image analysis software (ImageJ).
DNA cleavage was calculated using the following formula: in the formula, Int_full and Int_cleaved indicate the intensities derived from full length (uncleaved) and cleaved DNA, respectively.

[7] = system: TTR gene; experiment: Measurement of TTR-KO activity (serum TTR protein, ELISA); type: in vivo, mouse; details: for serum TTR (5′ versus 3′ mismatch site): FIG. 8, CL4H6 LNP, sgTTR-G211, 7 days after administration
Method: Lipid nanoparticles encapsulating Cas9/sgTTR-RNP (Cas9/sgTTR-RNP-loaded lipid nanoparticles) were intravenously injected to BALB/c mice (female, 4 weeks old) at the indicated doses. One week after intravenous injection, the mice were euthanized, blood was collected, and serum was isolated by centrifugation. The TTR protein concentration in the serum was determined using a commercially available ELISA kit (Prealbumin ELISA Kit (mouse), Aviva Systems Biology) according to the manufacturer's protocol. The serum TTR protein concentration of untreated mice was taken as 100%, and the relative value (%) of the serum TTR protein concentration of mice administered with each lipid nanoparticle was taken as the knockout activity (TTR-KO activity) of the lipid nanoparticle.

[8] = Fluc mRNA-loaded LNP, CL4F11-e-3/neutral lipid (DSPC or DOPE)/cholesterol/PEG-DMG 50/10/40/0.75 mol%
[9] = blood 24 hours after Fluc mRNA-loaded LNP containing CL4F12-e-4, n=3
[10] = TTR-RNP-ssODN-loaded LNP, sgTTR-G211, CL4H6/DSPC/cholesterol/PEG-DMG 50/10/40/3.5 mol%, Table 11
[11] = TTR-KO activity in mice, TTR-RNP-ssODN-loaded LNP CL4H6/DSPC/cholesterol/PEG-DMG 50/10/40/3.5 mol%, sgTTR-G211 (TTR_3) or sgTTR-G269 (TTR_4)
[12] = TTR-RNP-ssODN-loaded LNP, sgTTR-G211, CL4H6/DSPC/cholesterol/PEG-DMG 50/10/40/3.5 mol%, Table 13

## CCCCCCCC/C=C\CCCCCCCC(=O)OC[C@H](COP(=O)(O)OCCN)OC(=O)CCCCCCC/C=C\CCCCCCCC [DOPE, 1,2-dioleoyl-sn-glycero-3-phosphoethanolamine]
[1]; [8]
  Number-average particle diameter: 55.7 nm
  PdI: 0.196
  ζ-average: 82.1 nm
  ζ-potential: −2.35 mV
[2]
  Fluc activity in liver and spleen: stable activity over a wide range of DOPE contents
[3]; [8]
  Encapsulation rate: 89.1%

## CCCCCCC(CCCC)CCCCC(=O)OCCCCCCC(O)(CCCCCCOC(=O)CCCCC(CCCC)CCCCCC)CCCCN(CCC)CCC (centres unmarked) [CL4F12-e-4, 7-(4-(dipropylamino)butyl)-7-hydroxytridecane-1,13-diylbis(6-butyldodecanoate)]
[4]; 24 hours after Fluc mRNA-loaded LNP
  toxicity (blood test): no particular toxicity was observed
[4]; [9]
  ALB: 3.3 ± 0.1 g/dL
  ALT: 39.3 ± 3.4 IU/L
  AMY: 1879.3 ± 136.2** IU/L
  AST: 95.3 ± 3.4** IU/L
  BUN: 25.3 ± 2.8 mg/dL
  CRE: 0.1 ± 0.01 mg/dL
  Ca: 11.9 ± 0.4** mg/dL
  Cl: 98 ± 0 mEq/L
  GLU: 214 ± 8.2 mg/dL
  HDL-C: 78.7 ± 4.7** mg/dL
  IP: 11.1 ± 0.5 mg/dL
  K: 6.9 ± 0.2 mEq/L
  LDH: 732 ± 39.6 IU/L
  Na: 150.7 ± 1.9 mEq/L
  T-BIL: 0.03 ± 0.01 mg/dL
  T-CHO: 154.7 ± 8.4** mg/dL
  TG: 134 ± 52.8 mg/dL
  TP: 4.9 ± 0.1 g/dL
  γ-GT: 6> IU/L

B1: ssODN-TTR_3-80%: ssODN pairing with sgTTR-G211, 80% matched; SEQ ID NO 4 (nucleic acid)
DNA: AAAAAAAAAAAAAAAAAAAAAAAAAAAAAAAAAAAAAAAAAAAAAAAAAAAAAAAAAACTGTAGACGTGGCTGTTTAAAAAAAAAAAAAAAAAAAAAAAAAAAAAAAAAAAAAAAAAAAAAAAAAAAAAAAA
[5]
  ID %/tissue blood: 11.71 ID %/tissue
  ID %/tissue kidney: 0.16 ID %/tissue
  ID %/tissue liver: 43.14 ID %/tissue
  ID %/tissue lung: 0.33 ID %/tissue
  ID %/tissue spleen: 3.21 ID %/tissue
[6]; FIG. 7, TTR-RNP-ssODN, sgTTR-G211, 37° C. 30 min
  in vitro DNA cleavage activity: extremely low DNA cleavage activity
[6]; FIG. 22(A), sgTTR-G211 RNP, activity without ssODN = 100%
  relative DNA cleavage activity at 37° C.: about 20%
[1]; [10]
  Number-average particle diameter: 96.8 nm
  PdI: 0.112
  ζ-average: 141.3 nm
  ζ-potential: 2.88 mV
[7]; [11]
  KO (%) 1st test: 0.3%
  KO (%) 2nd test: 5.6%
[3]; [10]
  Encapsulation rate: 69.4%

B2: ssODN-TTR_3-50° C.-3′: ssODN pairing with sgTTR-G211, mismatch on one side; SEQ ID NO 20 (nucleic acid)
DNA: B1 DNA with A57T, A58G, G73A, T74A
[1]; [12]
  Number-average particle diameter: 79.0 nm
  PdI: 0.166
  ζ-average: 139.9 nm
  ζ-potential: 4.02 mV
[7]
  serum TTR (5′ versus 3′ mismatch site): about the same
[3]; [12]
  Encapsulation rate: 58.7%

B3: ssODN-TTR_3-50° C.-5′: ssODN pairing with sgTTR-G211, mismatch on one side; SEQ ID NO 21 (nucleic acid)
DNA: B1 DNA with C59A, T75A, T76A
[1]; [12]
  Number-average particle diameter: 86.8 nm
  PdI: 0.094
  ζ-average: 124.9 nm
  ζ-potential: 3.46 mV
[7]
  serum TTR (5′ versus 3′ mismatch site): about the same
[3]; [12]
  Encapsulation rate: 56.6%

B4: ssODN-TTR_3-0%: ssODN, 0% matched with sgTTR-G211; SEQ ID NO 9 (nucleic acid)
DNA: AAAAAAAAAAAAAAAAAAAAAAAAAAAAAAAAAAAAAAAAAAAAAAAAAAAAAAAAAAAAAATATAAAAAAAAATTAAAAAAAAAAAAAAAAAAAAAAAAAAAAAAAAAAAAAAAAAAAAAAAAAAAAAAAA
[5]
  ID %/tissue blood: 8.48 ID %/tissue
  ID %/tissue kidney: 0.17 ID %/tissue
  ID %/tissue liver: 31.62 ID %/tissue
  ID %/tissue lung: 0.18 ID %/tissue
  ID %/tissue spleen: 4.18 ID %/tissue
[1]; [10]
  Number-average particle diameter: 67.2 nm
  PdI: 0.192
  ζ-average: 128.4 nm
  ζ-potential: 3.49 mV
[3]; [10]
  Encapsulation rate: 89.4%
